B1: IspG-His (enzyme, E. coli BL21(DE3), UniProt P62620 1-372, looked up)
chain: MHNQAPIQRRKSTRIYVGNVPIGDGAPIAVQSMTNTRTTDVEATVNQIKALERVGADIVRVSVPTMDAAEAFKLIKQQVNVPLVADIHFDYRIALKVAEYGVDCLRINPGNIGNEERIRMVVDCARDKNIPIRIGVNAGSLEKDLQEKYGEPTPQALLESAMRHVDHLDRLNFDQFKVSVKASDVFLAVESYRLLAKQIDQPLHLGITEAGGARSGAVKSAIGLGLLLSEGIGDTLRVSLAADPVEEIKVGFDILKSLRIRSRGINFIACPTCSRQEFDVIGTVNALEQRLEDIITPMDVSIIGCVVNGPGEALVSTLGVTGGNKKSGLYEDGVRKDRLDNNDMIDQLEARIRAKASQLDEARRIDVQQVEK
notes: ispG amplified from the E. coli BL21(DE3) genome; also called His-tagged ispG; GcpE; source: E. coli BL21(DE3); coexpressed with YdfD constructs, in lysate; and purified (Ni-NTA, Superdex 200)
B2: YdfD (MBP tag cleaved) (natural protein, E. coli BL21(DE3), UniProt P29010 1-63, looked up)
chain: MNSAFVLVLTVFLVSGEPVDIAVSVHRTMQECMTAATEQKIPGNCYPVDKVIHQDNIEIPAGL
notes: YdfD, lysis protein of the Qin cryptic prophage, 63 amino acids; ydfD amplified from the E. coli BL21(DE3) genome; No truncation is told for this construct; source: E. coli BL21(DE3), purified as MBP-YdfD (amylose resin), MBP cleaved by PreScission protease; not shown: MBP, N-terminal, cleaved

For the assay “YdfD (MBP tag cleaved)”, the target named is B2. Nature of the assay: ITC; IspG (1.1 mM) injected into YdfD in the cell, 2 μL injections at 120 s spacing, 25 °C, 20 mM Tris, 150 mM NaCl, pH 8.0; one-site binding fit. The following applies: both partners purified. For orientation: In ITC the heat of successive injections is recorded.
The target of the assay “IspG-His” is B1. The assay is described as above. The note with it: both partners purified.

With B1, in the assay with YdfD (MBP tag cleaved), the dH was 1.57 kcal/mol and the stoichiometry N – broadly, a count of units in the complex or per binding partner – stood at 0.63.

Take B2: the Kd (in general, the free concentration of one partner at which half of the binding sites on the other are occupied at equilibrium, for simple one-to-one binding) with IspG-His was determined as 18.4 µM.
